Measured values taken from patent US20200048328A1 (Bristol-Myers Squibb, published 2020).

Experiments:
human PCSK9 [1] = target: T1, human PCSK9 (human, UniProt Q8NBP7 31-692); assay: PCSK9:EGFA FRET 1, competition
T1 construct: also called hPCSK9; huPCSK9

human PCSK9 [2] = target: T1, human PCSK9; assay: PCSK9:EGFA FRET 2, competition
human serum albumin = target: T2, human serum albumin (human, UniProt P02768 25-609); assay: direct binding ELISA, albumin coated
T2 construct: immobilized on chips or coated on plates elsewhere; also called HSA; HuSA

mouse serum albumin = target: T3, mouse serum albumin (mouse, UniProt P07724 25-608); assay: direct binding ELISA, albumin coated
T3 construct: also called MSA; MuSA

rhesus serum albumin = target: T4, rhesus serum albumin (rhesus, UniProt Q28522 17-600); assay: direct binding ELISA, albumin coated
T4 construct: also called RhSA; Rh-SA

human PCSK9 [3] = target: T1, human PCSK9; assay: PCSK9:LDLR FRET, competition

Binder | IC50 (human PCSK9 [1]) | IC50 (human PCSK9 [2]) | EC50 (human serum albumin) | EC50 (mouse serum albumin) | EC50 (rhesus serum albumin) | IC50 (human PCSK9 [3])
PCSK9-PKE2 tandem 4472_E09 (designed binder, In the real molecule the two parts given here are one polypeptide, joined by the undisclosed linker A. They are written as two chains only because the linker has no letters., not shown: Linker 'A' joining ...NYRTE of the PCSK9 domain to GVSDV... of the PKE2 domain) PCSK9 domain: MGVSDVPRDLEVVAATPTSLLISWDAPAEGYGYYRITYGETGGNSPVQEFTVPVSKGTATISGLKPGVDYTITVYAVEFDFPGAGYYHRPISINYRTE PKE2 domain: GVSDVPRDLEVVAATPTSLLISWDAPAVTVRYYRITYGREVQKYSDLGPLYIYQEFTVPGSKSTATISGLKPGVDYTITVYAVTGSGESPASSKPISINYRTEHHHHHH | 5.81 nM | 4.81 nM | 23.8 nM | 7 nM | 19.8 nM | 1.3 nM
PCSK9-PKE2 tandem 4472_A06 (designed binder, not shown: small tags and cut ends, The two parts are one polypeptide in the real molecule, joined by the undisclosed linker M; they are given here as separate chains.) PCSK9 10Fn3: MGVSDVPRDLEVVAATPTSLLISWDAPAEGYGYYRITYGETGGNSPVQEFTVPVSKGTATISGLKPGVDYTITVYAVEFDFPGAGYYHRPISINYRTE PKE2 10Fn3: GVSDVPRDLEVVAATPTSLLISWDAPAVTVRYYRITYGREVQKYSDLGPLYIYQEFTVPGSKSTATISGLKPGVDYTITVYAVTGSGESPASSKPISINYRTEHHHHHH | 9.06 nM | 2.72 nM | 77.8 nM | 8.6 nM | 44.4 nM | 1.6 nM
PCSK9-PKE2 tandem 4472_H09 (designed binder, The real molecule is ONE polypeptide: PCSK9 domain, undisclosed linker C, PKE2 domain. It is given here as two chains because the linker letters are unknown., not shown: The inter-domain linker) PCSK9 domain: MGVSDVPRDLEVVAATPTSLLISWDAPAEGYGYYRITYGETGGNSPVQEFTVPVSKGTATISGLKPGVDYTITVYAVEFDFPGAGYYHRPISINYRTE PKE2 domain: GVSDVPRDLEVVAATPTSLLISWDAPAVTVRYYRITYGREVQKYSDLGPLYIYQEFTVPGSKSTATISGLKPGVDYTITVYAVTGSGESPASSKPISINYRTEHHHHHH | 9.66 nM | 7.17 nM | 27.8 nM | 4 nM | 26.8 nM | 3 nM
PCSK9-PKE2 tandem 4472_B11 (designed binder, not shown: small tags and cut ends, The two parts are one polypeptide in the real molecule, joined by the undisclosed linker L; they are given here as separate chains.) PCSK9 10Fn3: MGVSDVPRDLEVVAATPTSLLISWDAPAEGYGYYRITYGETGGNSPVQEFTVPVSKGTATISGLKPGVDYTITVYAVEFDFPGAGYYHRPISINYRTE PKE2 10Fn3: GVSDVPRDLEVVAATPTSLLISWDAPAVTVRYYRITYGREVQKYSDLGPLYIYQEFTVPGSKSTATISGLKPGVDYTITVYAVTGSGESPASSKPISINYRTEHHHHHH | 6.54 nM | 5.03 nM | 70.1 nM | 13.5 nM | 54 nM | 2 nM
PCSK9-PKE2 tandem 4472_F06 (designed binder, The real molecule is ONE polypeptide: PCSK9 domain, undisclosed linker 'G' (a code letter, not the residue), PKE2 domain. It is given here as two chains because the linker letters are unknown., not shown: The inter-domain linker) PCSK9 domain: MGVSDVPRDLEVVAATPTSLLISWDAPAEGYGYYRITYGETGGNSPVQEFTVPVSKGTATISGLKPGVDYTITVYAVEFDFPGAGYYHRPISINYRTE PKE2 domain: GVSDVPRDLEVVAATPTSLLISWDAPAVTVRYYRITYGREVQKYSDLGPLYIYQEFTVPGSKSTATISGLKPGVDYTITVYAVTGSGESPASSKPISINYRTEHHHHHH | 4.5 nM | 3.42 nM | 58.9 nM | 11.3 nM | 40.8 nM | 1.1 nM
PCSK9-PKE2 tandem 4472_D08 (designed binder, not shown: small tags and cut ends, The two parts are one polypeptide in the real molecule, joined by the undisclosed linker N; they are given here as separate chains.) PCSK9 10Fn3: MGVSDVPRDLEVVAATPTSLLISWDAPAEGYGYYRITYGETGGNSPVQEFTVPVSKGTATISGLKPGVDYTITVYAVEFDFPGAGYYHRPISINYRTE PKE2 10Fn3: GVSDVPRDLEVVAATPTSLLISWDAPAVTVRYYRITYGREVQKYSDLGPLYIYQEFTVPGSKSTATISGLKPGVDYTITVYAVTGSGESPASSKPISINYRTEHHHHHH | 6.32 nM | 5.22 nM | 80.2 nM | 9.5 nM | 54.1 nM | 1.7 nM
PCSK9-PKE2 tandem 4472_B10 (designed binder, The real molecule is ONE polypeptide: PCSK9 domain, undisclosed linker J, PKE2 domain. It is given here as two chains because the linker letters are unknown., not shown: The inter-domain linker) PCSK9 domain: MGVSDVPRDLEVVAATPTSLLISWDAPAEGYGYYRITYGETGGNSPVQEFTVPVSKGTATISGLKPGVDYTITVYAVEFDFPGAGYYHRPISINYRTE PKE2 domain: GVSDVPRDLEVVAATPTSLLISWDAPAVTVRYYRITYGREVQKYSDLGPLYIYQEFTVPGSKSTATISGLKPGVDYTITVYAVTGSGESPASSKPISINYRTEHHHHHH | 9.69 nM | 6.97 nM | 67.7 nM | 10.9 nM | 38.9 nM | 2.2 nM
PCSK9-PKE2 tandem 4472_G10 (designed binder, The real molecule is ONE polypeptide: PCSK9 domain, undisclosed linker H (a code letter), PKE2 domain. It is given here as two chains because the linker letters are unknown., not shown: The inter-domain linker) PCSK9 domain: MGVSDVPRDLEVVAATPTSLLISWDAPAEGYGYYRITYGETGGNSPVQEFTVPVSKGTATISGLKPGVDYTITVYAVEFDFPGAGYYHRPISINYRTE PKE2 domain: GVSDVPRDLEVVAATPTSLLISWDAPAVTVRYYRITYGREVQKYSDLGPLYIYQEFTVPGSKSTATISGLKPGVDYTITVYAVTGSGESPASSKPISINYRTEHHHHHH | 7.81 nM | 6.81 nM | 61.3 nM | 10 nM | 48.3 nM | 2.4 nM
PCSK9-PKE2 tandem 4472_B05 (designed binder, not shown: small tags and cut ends, The two parts are one polypeptide in the real molecule, joined by the undisclosed linker O; they are given here as separate chains.) PCSK9 10Fn3: MGVSDVPRDLEVVAATPTSLLISWDAPAEGYGYYRITYGETGGNSPVQEFTVPVSKGTATISGLKPGVDYTITVYAVEFDFPGAGYYHRPISINYRTE PKE2 10Fn3: GVSDVPRDLEVVAATPTSLLISWDAPAVTVRYYRITYGREVQKYSDLGPLYIYQEFTVPGSKSTATISGLKPGVDYTITVYAVTGSGESPASSKPISINYRTEHHHHHH | 6.66 nM | 5.55 nM | 85.1 nM | 9.3 nM | 59.5 nM | 1.9 nM

The remaining lines, values ahead:

IC50 (human PCSK9 [1]) | IC50 (human PCSK9 [2]) | EC50 (human serum albumin) | EC50 (mouse serum albumin) | EC50 (rhesus serum albumin) | IC50 (human PCSK9 [3]) | Binder
6.13 nM | 3.76 nM | 26.9 nM | 3.9 nM | 15.7 nM | 1.4 nM | PCSK9-PKE2 tandem 4472_A11 (designed binder, In the real molecule the two parts given here are one polypeptide, joined by the undisclosed linker B. They are written as two chains only because the linker has no letters., not shown: Linker 'B' joining ...NYRTE of the PCSK9 domain to GVSDV... of the PKE2 domain) PCSK9 domain: MGVSDVPRDLEVVAATPTSLLISWDAPAEGYGYYRITYGETGGNSPVQEFTVPVSKGTATISGLKPGVDYTITVYAVEFDFPGAGYYHRPISINYRTE PKE2 domain: GVSDVPRDLEVVAATPTSLLISWDAPAVTVRYYRITYGREVQKYSDLGPLYIYQEFTVPGSKSTATISGLKPGVDYTITVYAVTGSGESPASSKPISINYRTEHHHHHH
3.99 nM | 4.18 nM | 40.3 nM | 3.8 nM | 27.8 nM | 1.2 nM | PCSK9-PKE2 tandem 4472_F04 (designed binder, The real molecule is ONE polypeptide: PCSK9 domain, undisclosed linker D, PKE2 domain. It is given here as two chains because the linker letters are unknown., not shown: The inter-domain linker) PCSK9 domain: MGVSDVPRDLEVVAATPTSLLISWDAPAEGYGYYRITYGETGGNSPVQEFTVPVSKGTATISGLKPGVDYTITVYAVEFDFPGAGYYHRPISINYRTE PKE2 domain: GVSDVPRDLEVVAATPTSLLISWDAPAVTVRYYRITYGREVQKYSDLGPLYIYQEFTVPGSKSTATISGLKPGVDYTITVYAVTGSGESPASSKPISINYRTEHHHHHH
9.36 nM | 6.95 nM | 69.2 nM | 9.8 nM | 45.1 nM | 2.4 nM | PCSK9-PKE2 tandem 4472_B09 (designed binder, not shown: small tags and cut ends, The two parts are one polypeptide in the real molecule, joined by the undisclosed linker K; they are given here as separate chains.) PCSK9 10Fn3: MGVSDVPRDLEVVAATPTSLLISWDAPAEGYGYYRITYGETGGNSPVQEFTVPVSKGTATISGLKPGVDYTITVYAVEFDFPGAGYYHRPISINYRTE PKE2 10Fn3: GVSDVPRDLEVVAATPTSLLISWDAPAVTVRYYRITYGREVQKYSDLGPLYIYQEFTVPGSKSTATISGLKPGVDYTITVYAVTGSGESPASSKPISINYRTEHHHHHH
5.66 nM | 4.35 nM | 102 nM | 13.1 nM | 63.1 nM | 1.5 nM | PCSK9-PKE2 tandem 4472_E05 (designed binder, not shown: small tags and cut ends, The two parts are one polypeptide in the real molecule, joined by the undisclosed linker R; they are given here as separate chains.) PCSK9 10Fn3: MGVSDVPRDLEVVAATPTSLLISWDAPAEGYGYYRITYGETGGNSPVQEFTVPVSKGTATISGLKPGVDYTITVYAVEFDFPGAGYYHRPISINYRTE PKE2 10Fn3: GVSDVPRDLEVVAATPTSLLISWDAPAVTVRYYRITYGREVQKYSDLGPLYIYQEFTVPGSKSTATISGLKPGVDYTITVYAVTGSGESPASSKPISINYRTEHHHHHH
7.45 nM | 4.83 nM | 124 nM | 14.8 nM | 98.2 nM | 1.4 nM | PCSK9-PKE2 tandem 4472_B03 (designed binder, not shown: The inter-domain linker; In the real molecule the two parts below are one polypeptide joined by this linker) PCSK9 domain: MGVSDVPRDLEVVAATPTSLLISWDAPAEGYGYYRITYGETGGNSPVQEFTVPVSKGTATISGLKPGVDYTITVYAVEFDFPGAGYYHRPISINYRTE PKE2 domain: GVSDVPRDLEVVAATPTSLLISWDAPAVTVRYYRITYGREVQKYSDLGPLYIYQEFTVPGSKSTATISGLKPGVDYTITVYAVTGSGESPASSKPISINYRTEHHHHHH
8.76 nM | 6.24 nM | 85.3 nM | 13.2 nM | 58.1 nM | 1.3 nM | PCSK9-PKE2 tandem 4472_H11 (designed binder, not shown: small tags and cut ends, The two parts are one polypeptide in the real molecule, joined by the undisclosed linker P (a code, not a proline); they are given here as separate chains.) PCSK9 10Fn3: MGVSDVPRDLEVVAATPTSLLISWDAPAEGYGYYRITYGETGGNSPVQEFTVPVSKGTATISGLKPGVDYTITVYAVEFDFPGAGYYHRPISINYRTE PKE2 10Fn3: GVSDVPRDLEVVAATPTSLLISWDAPAVTVRYYRITYGREVQKYSDLGPLYIYQEFTVPGSKSTATISGLKPGVDYTITVYAVTGSGESPASSKPISINYRTEHHHHHH
9.38 nM | 5.09 nM | 40.4 nM | 4.8 nM | 25.7 nM | 1.9 nM | PCSK9-PKE2 tandem 4472_C08 (designed binder, The real molecule is ONE polypeptide: PCSK9 domain, undisclosed linker 'E' (a code letter, not the residue), PKE2 domain. It is given here as two chains because the linker letters are unknown., not shown: The inter-domain linker) PCSK9 domain: MGVSDVPRDLEVVAATPTSLLISWDAPAEGYGYYRITYGETGGNSPVQEFTVPVSKGTATISGLKPGVDYTITVYAVEFDFPGAGYYHRPISINYRTE PKE2 domain: GVSDVPRDLEVVAATPTSLLISWDAPAVTVRYYRITYGREVQKYSDLGPLYIYQEFTVPGSKSTATISGLKPGVDYTITVYAVTGSGESPASSKPISINYRTEHHHHHH
9.45 nM | 7.54 nM | 101 nM | 8.9 nM | 64.8 nM | 2 nM | PCSK9-PKE2 tandem 4472_E04 (designed binder, not shown: small tags and cut ends, The two parts are one polypeptide in the real molecule, joined by the undisclosed linker Q; they are given here as separate chains.) PCSK9 10Fn3: MGVSDVPRDLEVVAATPTSLLISWDAPAEGYGYYRITYGETGGNSPVQEFTVPVSKGTATISGLKPGVDYTITVYAVEFDFPGAGYYHRPISINYRTE PKE2 10Fn3: GVSDVPRDLEVVAATPTSLLISWDAPAVTVRYYRITYGREVQKYSDLGPLYIYQEFTVPGSKSTATISGLKPGVDYTITVYAVTGSGESPASSKPISINYRTEHHHHHH
